Measured values as given in patent US20050164323A1 (Pfizer, published 2005).

Target: PKC-θ kinase domain (PKC-θ KD; amino acid residues 362 to 706), C-terminal hexa-histidine tag, expressed in … (Homo sapiens (Human), UniProt Q04759 362-706, autophosphorylated at 5 or 6 residues in E. coli; sites identified: Ser695, Ser685 and Thr538 or Thr536 (numbering of full-length PKC-θ))
Assay: cell-based or functional assay

Sequence of PKC-θ kinase domain (PKC-θ KD; amino acid residues 362 to 706), C-terminal hexa-histidine tag, expressed in … (Q04759 other isoform, or with tags, fused parts or gaps limits assumed): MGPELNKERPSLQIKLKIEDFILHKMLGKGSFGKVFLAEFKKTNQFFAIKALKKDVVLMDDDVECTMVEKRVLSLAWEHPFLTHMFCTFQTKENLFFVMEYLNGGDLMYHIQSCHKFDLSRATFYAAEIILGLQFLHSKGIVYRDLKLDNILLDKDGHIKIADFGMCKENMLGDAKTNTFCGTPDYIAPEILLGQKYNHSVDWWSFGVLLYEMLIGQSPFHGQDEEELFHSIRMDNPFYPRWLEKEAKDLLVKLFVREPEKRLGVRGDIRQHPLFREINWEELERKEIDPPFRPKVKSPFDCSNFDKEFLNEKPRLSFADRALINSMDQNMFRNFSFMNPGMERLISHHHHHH

Row | appKm (steady-state kinase kinetics, saturating ATP, 100 mM NaCl) | Binder
1 | 6.5 µM | FARKGSLRQ [Peptide 1 (FARKGSLRQ), substrate, pseudo-substrate PKC alpha]
2 | 4.3 µM | RFARKGSLRQKNV [Peptide 2 (RFARKGSLRQKNV), substrate, pseudo-substrate PKC alpha]
3 | 240 µM | RTPKLARQASIELPSM [Peptide 4 (RTPKLARQASIELPSM), substrate, lymphocyte-specific protein 1]
4 | 420 µM | LKRSLSEM [Peptide 3 (LKRSLSEM), substrate, Serum Response Factor]
